Laboratory results from US8197839B2, “Sustained release delivery system” (Virbac Corporation, priority 2001, dated 2012).

Assay: Feed conversion efficiency in pigs after sub-cutaneous implantation of rPST compressed tablets, 0-7 days
Format: in vivo
Conditions: 0-7 days (Table 6)
Description: A number of the compressed tablets were implanted via sub-cutaneous injection in pigs.

Molecule	FCR	Feed intake [kgs]	Weight increase [kgs]
PST Injection A: daily injection of porcine somatotropin, 5 mg/day, comparator (source A) (protein, UniProt P01248 27-216, looked up) Somatotropin: FPAMPLSSLFANAVLRAQHLHQLAADTYKEFERAYIPEGQRYSIQNAQAAFCFSETIPAPTGKDEAQQRSDVELLRFSLLLIQSWLGPVQFLSRVFTNSLVFGTSDRVYEKLKDLEEGIQALMRELEDGSPRAGQILKQTYDKFDTNLRSDDALLKNYGLLSCFKKDLHKAETYLRVMKCRRFVESSCAF	1.97	16.33	8.30
PST Injection M: daily injection of porcine somatotropin, 5 mg/day, comparator (source M) (protein, UniProt P01248 27-216, looked up) Somatotropin: FPAMPLSSLFANAVLRAQHLHQLAADTYKEFERAYIPEGQRYSIQNAQAAFCFSETIPAPTGKDEAQQRSDVELLRFSLLLIQSWLGPVQFLSRVFTNSLVFGTSDRVYEKLKDLEEGIQALMRELEDGSPRAGQILKQTYDKFDTNLRSDDALLKNYGLLSCFKKDLHKAETYLRVMKCRRFVESSCAF	1.78	16.78	9.43
